Results on three molecules are retold here after article PMC4749557 (2015).

The labels stand for the following.
B1: Mb(hPRDM14_S4), purified monobody (designed binder)
chain: GSVSSVPTKLEVVAATPTSLLISWDAPAVTVDLYFITYGETGGNSPVQKFTVPGSKSTATISGLKPGVDYTITVYAQYYYRGWYVGSPISINYRT
modifications: biotin
B2: recombinant Prdm14 pre-SET+SET domains (residues 184–373) (domain or fragment)
chain: GFNFTEEELSFVLYGAIASPEHPTDLQHAISGILVPTESSGSNHLHKTLDKDSLQLPEGLCLMQTSFGDVPHFGVFCSDFIAKGVRFGPFRGRVVNASEVKAHRDNSRMWEIFEDGHLSHFIDGKGSGNWMSYVNCARFPKEQNLLAVQHQGQIFYESCRDIQRNQELLVWYGNGYEKFLGVPMNLRVTE
modifications: biotin (biotin-acceptor tag)
B3: human PRDM14 (residues 238–487) (domain or fragment)
chain: LPQTLDKDSLQLPEGLCLMQTVFGEVPHFGVFCSSFIAKGVRFGPFQGKVVNASEVKTYGDNSVMWEIFEDGHLSHFIDGKGGTGNWMSYVNCARFPKEQNLVAVQCQGHIFYESCKEIHQNQELLVWYGDCYEKFLDIPVSLQVTEPGKQPSGPSEESAEGYRCERCGKVFTYKYYRDKHLKYTPCVDKGDRKFPCSLCKRSFEKRDRLRIHILHVHEKHRPHKCSTCGKCFSQSSSLNKHMRVHSGDR
modifications: biotin (biotin-acceptor tag)

Test [1] deals with B3.
In test [2] the target is Mb(hPRDM14_S14), purified monobody (biotin).
In test [3] the target is T1, recombinant Mtgr1 NHR1 domain (residues 98–206) (mouse, UniProt O70374 98-206, H200K, biotin (biotin-acceptor tag)).
T1 sequence: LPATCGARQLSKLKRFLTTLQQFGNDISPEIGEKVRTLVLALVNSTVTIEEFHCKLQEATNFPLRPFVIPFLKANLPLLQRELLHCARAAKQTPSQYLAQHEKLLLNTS
Briefly: Mtgr1 immobilized on beads.

Test [4] addresses T1, recombinant Mtgr1 NHR1 domain (residues …). Description: Prdm14 immobilized on beads.

Broadly, the Kd is the constant that tells how readily two partners part at equilibrium. As to B1, the dissociation constant (Kd) in test [1] turned out to be 38 nM.
Turning to B2, the Kd in test [2] came out at 1.7 nM; in test [3] it was 11 nM; in test [4] it was 7.1 nM.
In test [2], B3 registered a Kd of 2.8 nM.
